Data as given in article PMC3415985.

Key:
Assay in all cases: AUC
[1] = molecular target: BirA D176A (Escherichia coli) (UniProt P06709)
[2] = molecular target: BirA G142A (Escherichia coli) (UniProt P06709)
[3] = molecular target: BirA I280A (Escherichia coli) (UniProt P06709)
[4] = molecular target: BirA K172A (Escherichia coli) (UniProt P06709)

Substance: BirA D176A (from UniProt P06709 1-321) (enzyme)
- Kd [1]: > 6 mM

Substance: BirA G142A (from UniProt P06709 1-321) (enzyme)
- Kd [2]: > 17 mM

Substance: BirA I280A (from UniProt P06709 1-321) (enzyme)
- Kd [3]: > 4 mM

Substance: BirA K172A (from UniProt P06709 1-321) (enzyme)
- Kd [4]: > 0.7 mM
